Experiments:
[1] = target: SYT/L (long isoform of SYT/SS18), monkey (Cos-1) (monkey (endogenous in Cos-1)); assay: co-IP; endogenous proteins; post-nuclear (cytosolic) lysates of U2OS or Cos-1 cells in MLB buffer (25 mM HEPES pH 7.5, 150 mM NaCl, 1% Igepal CA-630, 10 mM MgCl2, 1 mM EDTA, 2% glycerol, 1 mM ATP); 1 µg pSYT or SYT/L-specific antibody overnight, Protein G PLUS-Agarose, 3 washes with RIPA buffer; bands stained with SYPRO Ruby, excised and identified by nano LC/MS/MS; controls: IgG and lysates of panSYT229 RNAi cells; Cos-1 lysates also pre-incubated with 100 µM GTP-γS or 1 mM GDP for 30 min at 30°C
[2] = target: SYT/S (short isoform of SYT/SS18), monkey (Cos-1) (monkey (endogenous in Cos-1)); assay: as above

With “actin, monkey (Cos-1) (from UniProt Q76N69 1-375) (natural protein)” the difference in co-immunoprecipitated level between lysates with GTP-γS and with GDP [1] was less than 5% and the difference in co-immunoprecipitated level between lysates with GTP-γS and with GDP [2] was less than 5%.
